Data reported in patent US20070093443A1 (CATALYST BIOSCIENCES, published 2007).

Experiments:
M84R ecotin = target: T1, M84R ecotin (UniProt P23827 21-162); assay: active site titration of purified CB155 with M84R ecotin, residual Ac-RQAR-AMC activity
T1 construct: Position 84 is probably counted on mature ecotin, not on the precursor entry; also called ecotin M84R
Description: The purified protein was assayed for specific activity, purity, and endotoxin levels. The specific activity or amount of active protease in each prep was determined by active site titration by incubation with an inhibitor that binds in the active site of the functional protease at varying concentrations followed by addition to a fluorogenic substrate for measurement of substrate proteolysis. The amount of active enzyme was calculated from a plot of the residual protease activity against the inhibitor concentration where the intercept corresponds to the concentration of active protease. […] Enzyme activity was monitored at 30° C. in the presence of 40 μM Ac-RQAR-AMC in assay buffer containing 50 mM Tris pH 8.0, 50 mM NaCl, and 0.01% Tween-20 (for trypsin activity, 10 mM CaCl2 was added) on a Gemini XPS spectrafluorimeter (Excitation: 380 nm; Emission: 450 nm; Cut-off: 435 mn). Purity of the protein preparation was assessed by resolution of the protein product on SDS-PAGE followed by staining with Coomassie Blue. […] The level of endotoxin in each prep was determined by Liumlus Amebocyte Lysate Chromo-LAL assay (Associated of Cape Cod) according to the manufacturer's protocol with the following modifications. […]

Complement C2 (human) = target: T2, Complement C2 (human) (human, UniProt P06681 21-752); assay: cell-based or functional assay
T2 sequence: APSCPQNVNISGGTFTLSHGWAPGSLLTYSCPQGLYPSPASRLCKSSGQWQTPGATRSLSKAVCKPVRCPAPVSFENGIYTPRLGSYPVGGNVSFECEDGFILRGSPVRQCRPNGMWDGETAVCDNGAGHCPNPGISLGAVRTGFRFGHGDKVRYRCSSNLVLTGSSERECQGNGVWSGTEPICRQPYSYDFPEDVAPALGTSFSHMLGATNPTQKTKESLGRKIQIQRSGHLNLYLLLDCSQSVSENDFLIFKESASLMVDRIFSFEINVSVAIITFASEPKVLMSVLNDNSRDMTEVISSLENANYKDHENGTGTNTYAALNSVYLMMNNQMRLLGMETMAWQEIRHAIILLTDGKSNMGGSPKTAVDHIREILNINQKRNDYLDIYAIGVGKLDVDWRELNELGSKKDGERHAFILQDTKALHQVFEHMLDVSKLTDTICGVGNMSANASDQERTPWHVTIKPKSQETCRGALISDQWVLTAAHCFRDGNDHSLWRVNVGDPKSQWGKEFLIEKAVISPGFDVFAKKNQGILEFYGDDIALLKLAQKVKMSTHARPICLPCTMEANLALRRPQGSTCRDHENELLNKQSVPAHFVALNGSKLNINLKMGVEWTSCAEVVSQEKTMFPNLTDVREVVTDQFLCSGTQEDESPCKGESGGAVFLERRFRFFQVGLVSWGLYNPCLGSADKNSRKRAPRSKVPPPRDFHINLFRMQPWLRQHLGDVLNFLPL

[1] = target: T3, alpha-2 macroglobulin (in human plasma) (human, UniProt P01023 24-1474); assay: Ac-RQAR-AMC activity of protease after 5 min in human citrated plasma, with and without M84R ecotin
T3 construct: Not purified: the endogenous protein of the plasma
T3 sequence (looked up): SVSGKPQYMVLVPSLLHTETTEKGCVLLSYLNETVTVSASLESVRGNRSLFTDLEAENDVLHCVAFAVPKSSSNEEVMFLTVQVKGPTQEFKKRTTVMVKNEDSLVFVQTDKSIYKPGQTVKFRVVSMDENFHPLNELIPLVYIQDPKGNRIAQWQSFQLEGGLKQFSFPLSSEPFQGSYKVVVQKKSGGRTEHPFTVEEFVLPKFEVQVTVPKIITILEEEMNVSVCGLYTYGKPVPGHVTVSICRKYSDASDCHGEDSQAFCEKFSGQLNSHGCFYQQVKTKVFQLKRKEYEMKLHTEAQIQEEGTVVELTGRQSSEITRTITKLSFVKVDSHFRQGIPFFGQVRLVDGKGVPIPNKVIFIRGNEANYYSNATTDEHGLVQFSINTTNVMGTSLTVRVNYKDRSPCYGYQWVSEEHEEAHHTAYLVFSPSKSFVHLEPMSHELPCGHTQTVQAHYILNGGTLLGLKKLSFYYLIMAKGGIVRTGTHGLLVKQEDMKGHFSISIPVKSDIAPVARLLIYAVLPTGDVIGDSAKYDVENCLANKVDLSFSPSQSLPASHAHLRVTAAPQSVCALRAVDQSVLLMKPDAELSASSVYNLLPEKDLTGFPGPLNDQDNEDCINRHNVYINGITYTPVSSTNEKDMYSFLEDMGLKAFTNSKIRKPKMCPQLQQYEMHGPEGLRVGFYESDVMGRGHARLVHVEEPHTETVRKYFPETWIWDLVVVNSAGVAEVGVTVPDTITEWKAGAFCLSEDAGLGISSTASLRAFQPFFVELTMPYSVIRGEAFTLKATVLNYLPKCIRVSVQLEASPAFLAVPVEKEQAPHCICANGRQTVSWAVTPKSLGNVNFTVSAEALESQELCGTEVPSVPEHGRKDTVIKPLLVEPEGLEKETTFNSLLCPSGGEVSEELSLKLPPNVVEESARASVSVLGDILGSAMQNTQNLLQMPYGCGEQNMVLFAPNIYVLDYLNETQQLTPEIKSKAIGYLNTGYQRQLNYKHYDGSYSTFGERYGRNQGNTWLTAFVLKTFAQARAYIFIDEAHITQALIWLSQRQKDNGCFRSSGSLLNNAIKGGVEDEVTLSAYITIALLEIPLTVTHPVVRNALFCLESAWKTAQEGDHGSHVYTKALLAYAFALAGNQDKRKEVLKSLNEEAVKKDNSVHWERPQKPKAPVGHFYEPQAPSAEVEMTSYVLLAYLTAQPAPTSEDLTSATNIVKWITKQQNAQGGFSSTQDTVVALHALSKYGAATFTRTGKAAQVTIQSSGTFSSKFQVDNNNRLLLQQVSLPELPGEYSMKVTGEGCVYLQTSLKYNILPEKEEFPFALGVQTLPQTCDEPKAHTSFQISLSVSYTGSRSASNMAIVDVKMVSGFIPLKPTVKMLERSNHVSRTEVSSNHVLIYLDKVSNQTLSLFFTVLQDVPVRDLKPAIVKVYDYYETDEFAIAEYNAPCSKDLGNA
Description: In addition, the percent protease unbound by alpha-2 macroglobulin (a2M) also was determined. Inactivation of a protease by alpha-2 macroglobulin traps the protease in a complex where it is still able to turn over small fluorescent substrates, but unable to access large protein substrates. This property of alpha-2 macroglobulin complicates the assessment of a proteases activity in plasma. To determine the actual activity of the free, uncomplexed protease in plasma, a two step measurement is required. First, the sample's activity on fluorescent substrates is measured. […] The percent unbound by alpha-2 macroglobulin activity is the percentage of the plasma residual activity that is inhibited by the addition of the ecotin. Briefly, in a 0.2 mL PCR tube, 1 μL 10× protease was mixed with 9 μL human plasma in citrate (Innovative Research). A uninhibted control also was prepeared containing 1 μL 10× protease mixed with 9 μL PBST. The mixtures were incubated for 5 minutes at 37° C. The samples were diluted 250 fold in PBST and stored on ice. Two 50 μL aliquots for each sample were transferred to an opaque assay plate (Costar #3694) containing 2 μL PBST or 2 μL 520 nM M84R ecotin. The plates were incubated 10 minutes at room temperature. Five microliters 0.4 mM Ac-RQAR-AMC substrate was added and the fluorescence was measured over time with a SpectraMax M5 spectrafluorometer (Molecular Devices) set to read every 20 seconds for 30 minutes at 30° C. (Ex: 380 nm, EM: 450 nm, Cut-off: 435 nm). The percent unbound by alpha-2 macroglobulin was calculated with the following formula: (1-([(Protease in plasma/Protease in PBST)−(Protease in plasma+ecotin/Protease in PBST)]/(Protease in plasma/Protease in PBST)))*100.

Row | binding result (M84R ecotin) | IC50 based on gel densitometry of C2 cleavage products (purified C2) (Complement C2 (human)) | IC50 of the proteases for cleavage of C2 (Western blot densitometry, 5% human plasma, 1 h 37 C) (Complement C2 (human)) | % Unbound by a2M [1] | Binder | IC50 for hemolysis in C2 depleted serum supplemented with protease-treated C2 (Complement C2 (human))
1 | binds | 2.2 nM | 18.4 nM | – | modified MT-SP1 CB155 (Y146D/K224F) protease domain (enzyme) VVGGTDADEGEWPWQVSLHALGQGHICGASLISPNWLVSAAHCYIDDRGFRYSDPTQWTAFLGLHDQSQRSAPGVQERRLKRIISHPFFNDFTFDYDIALLELEKPAEYSSMVRPICLPDASHVFPAGKAIWVTGWGHTQDGGTGALILQKGEIRVINQTTCENLLPQQITPRMMCVGFLSGGVDSCQGDSGGPLSSVEADGRIFQAGVVSWGDGCAQRNFPGVYTRLPLFRDWIKENTGV | 17 nM
2 | – | – | – | 0% | modified MT-SP1 CB490 (I41T/Y146E/G151L/Q175D/K224R) protease domain (enzyme) VVGGTDADEGEWPWQVSLHALGQGHTCGASLISPNWLVSAAHCYIDDRGFRYSDPTQWTAFLGLHDQSQRSAPGVQERRLKRIISHPFFNDFTFDYDIALLELEKPAEYSSMVRPICLPDASHVFPAGKAIWVTGWGHTQEGGTLALILQKGEIRVINQTTCENLLPQDITPRMMCVGFLSGGVDSCQGDSGGPLSSVEADGRIFQAGVVSWGDGCAQRNRPGVYTRLPLFRDWIKENTGV | –
